This note sets out measurements from publication PMC10524254.

The nature of data set [1]: surface FACS. The following applies: glycan lost.
Data set [2] is described as follows: dual-color iSIM, Pearson correlation, TMD8. The following applies: glycan lost; control: wild type IgM.
A short description of data set [3]: IgM-TLR9 proximity ligation assay. The following applies: glycan lost; control: wild type IgM.
Data set [4] in a line: dSTORM, Hopkins index and H-function, TMD8. The following applies: glycan lost; control: untreated / control cells.
Data set [5] in a line: IgM-LAMP1 proximity ligation assay. The following applies: glycan lost; control: DMSO.
The nature of data set [6]: anti-IgM Fab-pHrodo internalization, flow cytometry. The following applies: glycan lost; control: DMSO. (In general: A flow cytometer gives signals particle by particle.)
A short description of data set [7]: CD79A-BioID2 proximity labelling, SILAC MS, TMD8. The following applies: glycan lost; control: DMSO.

B1: IgM: quadruple mutant (N46Q, N209Q, N272Q, N279Q) (protein)
parent chain: GSASAPTLFPLVSCENSPSDTSSVAVGCLAQDFLPDSITFSWKYKNNSDISSTRGFPSVLRGGKYAATSQVLLPSKDVMQGTDEHVVCKVQHPNGNKEKNVPLPVIAELPPKVSVFVPPRDGFFGNPRKSKLICQATGFSPRQIQVSWLREGKQVGSGVTTDQVQAEAKESGPTTYKVTSTLTIKESDWLGQSMFTCRVDHRGLTFQQNASSMCVPDQDTAIRVFAIPPSFASIFLTKSTKLTCLVTDLTTYDSVTISWTRQNGEAVKTHTNISESHPNATFSAVGEASICEDDWNSGERFTCTVTHTDLPSPLKQTISRPKGVALHRPDVYLLPPAREQLNLRESATITCLVTGFSPADVFVQWMQRGQPLSPEKYVTSAPMPEPQAPGRYFAHSILTVSEEEWNTGETYTCVVAHEALPNRVTERTVDKSTEGEVSADEEGFENLWATASTFIVLFLLSLFYSTTVTLFKVK
Consider B1, for which the localisation_or_trafficking result in data set [1] (control: wild type IgM) is “no change”.

B2: IgM: N209 mutant (protein)
parent chain: GSASAPTLFPLVSCENSPSDTSSVAVGCLAQDFLPDSITFSWKYKNNSDISSTRGFPSVLRGGKYAATSQVLLPSKDVMQGTDEHVVCKVQHPNGNKEKNVPLPVIAELPPKVSVFVPPRDGFFGNPRKSKLICQATGFSPRQIQVSWLREGKQVGSGVTTDQVQAEAKESGPTTYKVTSTLTIKESDWLGQSMFTCRVDHRGLTFQQNASSMCVPDQDTAIRVFAIPPSFASIFLTKSTKLTCLVTDLTTYDSVTISWTRQNGEAVKTHTNISESHPNATFSAVGEASICEDDWNSGERFTCTVTHTDLPSPLKQTISRPKGVALHRPDVYLLPPAREQLNLRESATITCLVTGFSPADVFVQWMQRGQPLSPEKYVTSAPMPEPQAPGRYFAHSILTVSEEEWNTGETYTCVVAHEALPNRVTERTVDKSTEGEVSADEEGFENLWATASTFIVLFLLSLFYSTTVTLFKVK
With B2, the “other: plasma-membrane colocalisation” value in data set [2] is reported as “increases”. Further, in data set [3], the “other: proximity (My-T-BCR formation)” value is reported as “decreases”.

B3: IgM: STT3B knockout (protein)
parent chain: GSASAPTLFPLVSCENSPSDTSSVAVGCLAQDFLPDSITFSWKYKNNSDISSTRGFPSVLRGGKYAATSQVLLPSKDVMQGTDEHVVCKVQHPNGNKEKNVPLPVIAELPPKVSVFVPPRDGFFGNPRKSKLICQATGFSPRQIQVSWLREGKQVGSGVTTDQVQAEAKESGPTTYKVTSTLTIKESDWLGQSMFTCRVDHRGLTFQQNASSMCVPDQDTAIRVFAIPPSFASIFLTKSTKLTCLVTDLTTYDSVTISWTRQNGEAVKTHTNISESHPNATFSAVGEASICEDDWNSGERFTCTVTHTDLPSPLKQTISRPKGVALHRPDVYLLPPAREQLNLRESATITCLVTGFSPADVFVQWMQRGQPLSPEKYVTSAPMPEPQAPGRYFAHSILTVSEEEWNTGETYTCVVAHEALPNRVTERTVDKSTEGEVSADEEGFENLWATASTFIVLFLLSLFYSTTVTLFKVK
Turning to B3, in data set [4], the “other: surface clustering” value was “decreases”.

B4: IgM: N209Q (protein)
parent chain: GSASAPTLFPLVSCENSPSDTSSVAVGCLAQDFLPDSITFSWKYKNNSDISSTRGFPSVLRGGKYAATSQVLLPSKDVMQGTDEHVVCKVQHPNGNKEKNVPLPVIAELPPKVSVFVPPRDGFFGNPRKSKLICQATGFSPRQIQVSWLREGKQVGSGVTTDQVQAEAKESGPTTYKVTSTLTIKESDWLGQSMFTCRVDHRGLTFQQNASSMCVPDQDTAIRVFAIPPSFASIFLTKSTKLTCLVTDLTTYDSVTISWTRQNGEAVKTHTNISESHPNATFSAVGEASICEDDWNSGERFTCTVTHTDLPSPLKQTISRPKGVALHRPDVYLLPPAREQLNLRESATITCLVTGFSPADVFVQWMQRGQPLSPEKYVTSAPMPEPQAPGRYFAHSILTVSEEEWNTGETYTCVVAHEALPNRVTERTVDKSTEGEVSADEEGFENLWATASTFIVLFLLSLFYSTTVTLFKVK
Turning to B4, the localisation_or_trafficking entry in data set [1] (control: wild type IgM) is listed as “no change”.

B5: IgM: NGI-1 (protein)
parent chain: GSASAPTLFPLVSCENSPSDTSSVAVGCLAQDFLPDSITFSWKYKNNSDISSTRGFPSVLRGGKYAATSQVLLPSKDVMQGTDEHVVCKVQHPNGNKEKNVPLPVIAELPPKVSVFVPPRDGFFGNPRKSKLICQATGFSPRQIQVSWLREGKQVGSGVTTDQVQAEAKESGPTTYKVTSTLTIKESDWLGQSMFTCRVDHRGLTFQQNASSMCVPDQDTAIRVFAIPPSFASIFLTKSTKLTCLVTDLTTYDSVTISWTRQNGEAVKTHTNISESHPNATFSAVGEASICEDDWNSGERFTCTVTHTDLPSPLKQTISRPKGVALHRPDVYLLPPAREQLNLRESATITCLVTGFSPADVFVQWMQRGQPLSPEKYVTSAPMPEPQAPGRYFAHSILTVSEEEWNTGETYTCVVAHEALPNRVTERTVDKSTEGEVSADEEGFENLWATASTFIVLFLLSLFYSTTVTLFKVK
Consider B5, for which the localisation_or_trafficking entry in data set [5] and in data set [6] was “decreases” in each case. Besides, the “other: surface clustering” value in data set [4] is reported as “decreases”.

B6: IgM: N46 mutant (protein)
parent chain: GSASAPTLFPLVSCENSPSDTSSVAVGCLAQDFLPDSITFSWKYKNNSDISSTRGFPSVLRGGKYAATSQVLLPSKDVMQGTDEHVVCKVQHPNGNKEKNVPLPVIAELPPKVSVFVPPRDGFFGNPRKSKLICQATGFSPRQIQVSWLREGKQVGSGVTTDQVQAEAKESGPTTYKVTSTLTIKESDWLGQSMFTCRVDHRGLTFQQNASSMCVPDQDTAIRVFAIPPSFASIFLTKSTKLTCLVTDLTTYDSVTISWTRQNGEAVKTHTNISESHPNATFSAVGEASICEDDWNSGERFTCTVTHTDLPSPLKQTISRPKGVALHRPDVYLLPPAREQLNLRESATITCLVTGFSPADVFVQWMQRGQPLSPEKYVTSAPMPEPQAPGRYFAHSILTVSEEEWNTGETYTCVVAHEALPNRVTERTVDKSTEGEVSADEEGFENLWATASTFIVLFLLSLFYSTTVTLFKVK
For B6, the “other: plasma-membrane colocalisation” value in data set [2] is listed as “increases”. Further, the “other: proximity (My-T-BCR formation)” value in data set [3] is listed as “decreases”.

B7: CD79A: N112Q (protein)
parent chain: MPGGPGVLQALPATIFLLFLLSAVYLGPGCQALWMHKVPASLMVSLGEDAHFQCPHNSSNNANVTWWRVLHGNYTWPPEFLGPGEDPNGTLIIQNVNKSHGGIYVCRVQEGNESYQQSCGTYLRVRQPPPRPFLDMGEGTKNRIITAEGIILLFCAVVPGTLLLFRKRWQNEKLGLDAGDEYEDENLYEGLNLDDCSMYEDISRGLQGTYQDVGSLNIGDVQLEKP
On to B7, for which, in data set [1] (control: wild type CD79A), the localisation_or_trafficking entry is “no change”.

B8: CD79A: NGI-1 (protein)
parent chain: MPGGPGVLQALPATIFLLFLLSAVYLGPGCQALWMHKVPASLMVSLGEDAHFQCPHNSSNNANVTWWRVLHGNYTWPPEFLGPGEDPNGTLIIQNVNKSHGGIYVCRVQEGNESYQQSCGTYLRVRQPPPRPFLDMGEGTKNRIITAEGIILLFCAVVPGTLLLFRKRWQNEKLGLDAGDEYEDENLYEGLNLDDCSMYEDISRGLQGTYQDVGSLNIGDVQLEKP
On to B8, for which, in data set [7], the “other: proximity” value is “increases”.

B9: CD79B: N73Q (protein)
parent chain: MARLALSPVPSHWMVALLLLLSAEPVPAARSEDRYRNPKGSACSRIWQSPRFIARKRGFTVKMHCYMNSASGNVSWLWKQEMDENPQQLKLEKGRMEESQNESLATLTIQGIRFEDNGIYFCQQKCNNTSEVYQGCGTELRVMGFSTLAQLKQRNTLKDGIIMIQTLLIILFIIVPIFLLLDKDDSKAGMEEDHTYEGLDIDQTATYEDIVTLRTGEVKWSVGEHPGQE
For the protein B9, in data set [1] (control: wild type CD79B), the localisation_or_trafficking result is given as “no change”.

B10: CD79B: triple mutant (N73Q, N101Q, N127Q) (protein)
parent chain: MARLALSPVPSHWMVALLLLLSAEPVPAARSEDRYRNPKGSACSRIWQSPRFIARKRGFTVKMHCYMNSASGNVSWLWKQEMDENPQQLKLEKGRMEESQNESLATLTIQGIRFEDNGIYFCQQKCNNTSEVYQGCGTELRVMGFSTLAQLKQRNTLKDGIIMIQTLLIILFIIVPIFLLLDKDDSKAGMEEDHTYEGLDIDQTATYEDIVTLRTGEVKWSVGEHPGQE
For B10, in data set [1] (control: wild type CD79B), the localisation_or_trafficking entry is “no change”.

B11: CD79B: N101Q (protein)
parent chain: MARLALSPVPSHWMVALLLLLSAEPVPAARSEDRYRNPKGSACSRIWQSPRFIARKRGFTVKMHCYMNSASGNVSWLWKQEMDENPQQLKLEKGRMEESQNESLATLTIQGIRFEDNGIYFCQQKCNNTSEVYQGCGTELRVMGFSTLAQLKQRNTLKDGIIMIQTLLIILFIIVPIFLLLDKDDSKAGMEEDHTYEGLDIDQTATYEDIVTLRTGEVKWSVGEHPGQE
Consider B11, for which the localisation_or_trafficking entry in data set [1] (control: wild type CD79B) is given as “no change”.
